Source: the RNAGym collection of RNA variant scans (doi:10.1093/molbev/msab373)

B1: Azoarcus group I ribozyme (parent)
chain: GUGCCUUGCGCCGGGAAACCACGCAAGGGAUGGUGUCAAAUUCGGCGAAACCUAAGCGCCCGCCCGGGCGUAUGGCAACGCCGAGCCAAGCUUCGGCGCCUGCGCCGAUGAAGGUGUAGAGACUAGACGGCACCCACCUAAGGCAAACGCUAUGGUGAAGGCAUAGUCCAGGGAGUGGCGAAAGUCACACAAACCGG

Variants of: B1
Experiment: reverse-splicing fitness (ratio to wild type); higher = more active; in vitro selection; Mg2+ level not given
Summary of the method: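 An in vitro group I ribozyme library with randomized positions was T7-transcribed and gel-purified. In triplicate, 10 pmol RNA in EPPS pH 7.5 was reacted with 50 pmoles of a 30-nt RNA substrate for 1 h at 37 °C across several added MgCl2 levels (1–48 mM), then stopped with EDTA. Products were reverse transcribed from a substrate-complementary primer, PCR-amplified and sequenced (HiSeq 4000). Fitness is a variant's read proportion after selection over that before, normalised to wild type.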
C82U A111C A120C C150G C169U showed a reverse-splicing fitness of 0.00884.
Variant C82U A111C A120C C150G C169U U176A has a reverse-splicing fitness of 0.00808.
With C82U A111C A120C C150G C169U U176C the reverse-splicing fitness was 0.0134.
C82U A111C A120C C150G C169U U176G showed a reverse-splicing fitness of 0.00565.
In the case of C82U A111C A120C C150G U176A, the reverse-splicing fitness is reported as 0.00528.
C82U A111C A120C C150G U176C gave a reverse-splicing fitness of 0.00787.
For C82U A111C A120C C150G U176G, the reverse-splicing fitness was 0.00336.
Variant C82U A111C A120C C150U has a reverse-splicing fitness of 0.0192.
C82U A111C A120C C150U C169A gave a reverse-splicing fitness of 0.00816.
Work on C82U A111C A120C C150U C169A U176A yielded a reverse-splicing fitness of 0.0151.
In the case of C82U A111C A120C C150U C169A U176C, the reverse-splicing fitness is reported as 0.0151.
Work on C82U A111C A120C C150U C169A U176G yielded a reverse-splicing fitness of 0.00672.
C82U A111C A120C C150U C169G gave a reverse-splicing fitness of 0.0078.
With C82U A111C A120C C150U C169G U176A the reverse-splicing fitness was 0.0121.
For C82U A111C A120C C150U C169G U176C, the reverse-splicing fitness was 0.0153.
With C82U A111C A120C C150U C169G U176G the reverse-splicing fitness was 0.00553.
With C82U A111C A120C C150U C169U the reverse-splicing fitness was 0.0109.
With C82U A111C A120C C150U C169U U176A the reverse-splicing fitness was 0.0178.
C82U A111C A120C C150U C169U U176C gave a reverse-splicing fitness of 0.0196.
C82U A111C A120C C150U C169U U176G showed a reverse-splicing fitness of 0.00584.
With C82U A111C A120C C150U U176A the reverse-splicing fitness was 0.00888.
For C82U A111C A120C C150U U176C, the reverse-splicing fitness was 0.0168.
Variant C82U A111C A120C C150U U176G has a reverse-splicing fitness of 0.00627.
With C82U A111C A120C C169A the reverse-splicing fitness was 0.00788.
Work on C82U A111C A120C C169A U176A yielded a reverse-splicing fitness of 0.016.
Work on C82U A111C A120C C169A U176C yielded a reverse-splicing fitness of 0.0189.
In the case of C82U A111C A120C C169A U176G, the reverse-splicing fitness is reported as 0.00546.
For C82U A111C A120C C169G, the reverse-splicing fitness was 0.00813.
For C82U A111C A120C C169G U176A, the reverse-splicing fitness was 0.0173.
Work on C82U A111C A120C C169G U176C yielded a reverse-splicing fitness of 0.0186.
C82U A111C A120C C169G U176G showed a reverse-splicing fitness of 0.00563.
Variant C82U A111C A120C C169U has a reverse-splicing fitness of 0.0127.
Variant C82U A111C A120C C169U U176A has a reverse-splicing fitness of 0.018.
Variant C82U A111C A120C C169U U176C has a reverse-splicing fitness of 0.0145.
For C82U A111C A120C C169U U176G, the reverse-splicing fitness was 0.00583.
For C82U A111C A120C U176A, the reverse-splicing fitness was 0.0154.
With C82U A111C A120C U176C the reverse-splicing fitness was 0.0215.
Work on C82U A111C A120C U176G yielded a reverse-splicing fitness of 0.00517.
Work on C82U A111C A120G yielded a reverse-splicing fitness of 0.0151.
C82U A111C A120G A145C showed a reverse-splicing fitness of 0.0118.
With C82U A111C A120G A145C C150A the reverse-splicing fitness was 0.00617.
In the case of C82U A111C A120G A145C C150A C169A, the reverse-splicing fitness is reported as 0.00641.
